± gives the half width of the 95% confidence interval.
experiment: folding stability dG unfold from trypsin proteolysis; higher = more stable
Outline: (§1)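 Only designs with AlphaFold2 dimer inter-PAE above 15 were retained; each was a mini-protein under 80 residues with no cysteine, in a PA-tagged cDNA display construct. After digestion with trypsin and chymotrypsin and sequencing, K50 was inferred by Bayesian fitting of counts, and unfolding free energy was derived per protease or combined against a sequence-predicted unfolded-state K50 and a shared folded-state K50.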

| Sequence | folding stability dG unfold [kcal/mol] |
| --- | --- |
| SAGGNPRPIELYFPEGKIEKIQEKLREEDGYDVDIQMEQNPDGWFKINITFQDPQRVMDILEKFGITSAGGS [r16_172_TrROS] | 1.19 ± 0.058 |
| SAGGSAGGSFKVPGGYKVVSVEEDPENKTVEITFADGSKLTIDIEDPNVFKPVKVEAPEGFDVSAGGSAGGS [r12_149_TrMRF] | 1.55 ± 0.081 |
| SAGGLYKKDPDGQYVKPVPKVPPIPIEIKFPNGVEVKIEIYPYSNHITIEYTGPNPELANELIQEIIQSAGG [r13_701_TrROS] | 0.425 ± 0.091 |
| SAGGMKKTVTITITEELPTETGEYKTKTVTTTLTVTPPPPEVTEEEKLREKALKENPNVSPDDPKALLSAGG [r13_136_JUSTAS] | -0.948 ± 0.6 |
| SAGGREITIMIWMPLEDMEEFANEIANALAAEGYKVKDIEIQFKVIPDPENGRPWVMFMIEVEIEPPSAGGS [r8_475_TrROS] | 2.96 ± 0.19 |
| SAGGKTLTIEVNGKKYKITVEKNENGELTLTIYEYDKKTKKWKKIKTIKLKNMSLEEVLKLLKKLPPSAGGS [r16_378_TrROS_Hall] | 4.09 ± 0.2 |
| SAGGEGEPFRITPDEIQRIFNELAQDHGFNVSISEIQVPGDEVRITISIQHDGGTQSVRLPFRIEKDDSAGG [r13_652_TrROS] | 0.427 ± 0.2 |
| SLTPEQVEKIAKTIADVFRKLGYELKVKTKVFEVNNVPVAVVEFELIDKDGKPRRFRFVIHPDGTIEIFPSA [r9_1027_TrMRF] | 4.15 ± 0.07 |
| SAGGSAGGSAGGSPPGQEILIQIKIEFTFPIKKQTDGKPQWHPITISFTAAIPIKVDPNSAGGSAGGSAGGS [r4_271_TrROS] | 3.22 ± 0.13 |
| SAGGIKIMIPPGMPEEEARELARMIASMLPDNGHNIDDVKVRPVKPMPPPDGEPHRMYEFEIKLEPPSAGGS [r16_266_TrROS] | 1.01 ± 0.035 |
| SAGGSAGGSMKRLPDGNLVVKLNNGSTWSVITIPVSPDESEEEIKQRLKELFGPNYPEYDISESAGGSAGGS [r12_300_JUSTAS] | 1.08 ± 0.011 |
| SAGGSAGGSAKITITKEDIVSYDEENKTFTIKLKDGSTIKIRVEKVKDGKIKVYDEDTGKPISAGGSAGGSA [r18_418_TrROS_Hall] | 1.27 ± 0.063 |
| SAGGSAGGSADIGDPSKIKPKPLHFSFPVKIKLSFEYNGPDGVKKTFSLELTFTVVDKGLGSAGGSAGGSAG [r3_380_TrMRF] | 3.15 ± 0.2 |
| SAGGSAGGSAKYLVVGGKVIEIPSGGDAKIETTKDDRVKVTIDLPDDRKLEFTFPVPKWVGSAGGSAGGSAG [r3_207_TrMRF] | 0.514 ± 0.029 |
| SAGGSAPPTYTFMIPIKEIYVPDPDNGKPKPIPVEEFADFLMPKFGIDVEILDVHPDWIQITVTPDSAGGSA [r15_55_TrROS] | 1.81 ± 0.11 |
| SAGGMTPEELEAAARAAAAALRAELEAGDPDVEVDLEVDPEKGTATFTVTDRATGRPRTLTVPFAELASAGG [r13_354_JUSTAS] | 0.871 ± 0.074 |
| SMVIPPGSRAEFRLEDVPVRLEVEEGSGKVHFRVFSPENPDEEVFEAEFDINDLKPLDLPPELREAFEKESA [r9_1051_TrMRF] | 0.652 ± 0.057 |
| SMVVIEVEPNPETNSLTAKVYLPKDGKKVVEIERSPDGTVKVTVYYKDGSKEEFTFPEDIPIEEAIKKAISA [r9_346_TrMRF] | 1.16 ± 0.037 |
| SMTAEVTLTIVYPDGTSTTLPMTFPADDPEALRAAIRAAVAAAGYTPTALQMTFTAQPDGSVRVDVTVTVAS [r1_281_JUSTAS] | 4.1 ± 0.059 |
| SAGGMITEKVEKIDDGEIIKLTANLSDPSPVVAWLKATGKNVKLVEIKPTTDPETGNTTVNATFLLPSAGGS [r16_699_JUSTAS] | 0.109 ± 0.25 |
| SAGGSAGGMVVRVTLPDGTVVTFEFESEEEFRKEFAASLGLAPDEIPEERIVSVERLSPEEYRSSAGGSAGG [r6_588_JUSTAS] | 1.26 ± 0.039 |

| Sequence | folding stability dG unfold [kcal/mol] |
| --- | --- |
| SAGGKVVTVEVELENGVRVTVEFVEEDGYLALKVTVEVRLPAPPVTTADGREKEVTRRLELVILLPKESAGG [r13_780_TrROS_Hall] | 2.72 ± 0.14 |
| SAGKKVRIWIVFDGDPEQAKYLAEEIAKELRQKDGHKNVDIEVIPPGQDMHQMMEWAEENNVDIVIMVSAGG [r19_89_TrROS] | 2.68 ± 0.15 |
| SAGKKITAEELAKKIAEELGLPEDAKVEVEEVDGTIYIRVEGYVIKITVKDGEITIEIKPAPASPEALKSAG [r5_190_TrROS_Hall] | 1.53 ± 0.044 |
| SAGPPWEPVPITPEIIDKLADKLNPGFPISLQVYRHPDGRVKISIRNEGSGKEYTLVVDPDGDIEIEPSAGG [r19_70_TrROS] | 3.07 ± 0.19 |
| SAGPVKIQIEPDNGEEFEFRLPPNVSEIETSGDKFIIRFPPGMMFKIEIDEELPPGDTVPIRILDIVPSAGG [r19_274_TrROS] | 1.33 ± 0.057 |
| SAGGITIVWQPGYFRIEFPGNGNTVPIPIPPDDPGRTLEEFADEFIDEMSERFGIPPPEDIKIEYYDSAGGS [r8_402_TrROS] | 1.31 ± 0.13 |
| SAGGSAGGSMKTVEIELVNKETGKKVTITVNDGKVTIRITNPDGEEKELEFPSLEEALEALLSSAGGSAGGS [r12_511_TrROS_Hall] | 2.45 ± 0.14 |
| SAGGSAGGEEAREAIEQELRARGINVTEIKVEEKKLTPDKTVVTFTVTARLPDSELTSTFTVVDSAGGSAGG [r6_533_JUSTAS] | 0.141 ± 0.19 |
| SAGGSAGGSAGMTLRLKIRVYDPETREEVEEKEIEVELPPGASLEELLAALPPEQVEVEFSAGGSAGGSAGG [r17_339_TrROS_Hall] | 0.534 ± 0.12 |
| PFPIYVKIERDGKPVREEPIPMDELQEMPVEEVIEYARELLRQFPGRKYKVEVYFPGGPREFEIKDPEDIKS [r1_477_TrROS] | 0.496 ± 0.071 |
| SAGGLIEAIKEAIDQAPPGDEEVTIPIRFPNGTFVIEIRREKDKYKIEIEMQNPNGQKQEITITIEVSAGGS [r16_642_TrROS] | 1.43 ± 0.091 |
| SAGGSAGGAPPDLKVTVKPTPGPGTGQRYTVVVELDEGGVLPFPFSFASPSEVEKAAKAIAALLSAGGSAGG [r6_996_TrMRF] | 1.02 ± 0.056 |
| SAGGSAGGSKETLTIKIKVEVKDENGEKKEVTVTLTIKAETKEEAEALLKELKEKYPNVKVEPSAGGSAGGS [r12_1043_TrROS_Hall] | 2.7 ± 0.38 |
| SMKYRITLTITKGDEDIVVEIETESEEEAKEKFKKAISPELLKALPEDAKVEITVEPEPLVIPEPGVPLPSA [r9_111_JUSTAS] | 0.465 ± 0.038 |
| SAGGMRLRIVVKSEEEARELAEALAKKLKEEFPGLKIEVKVVKVEYNEETDLIVVEVEIKVELEDEEPSAGG [r13_585_TrROS_Hall] | 4.6 ± 0.33 |
| SAGGSAGGSAGGSKPMYLFTVETENGKKLVIEAKSLEEALKALEKAGYKIKKVEVVKLPSAGGSAGGSAGGS [r4_213_TrROS_Hall] | 3.36 ± 0.1 |
| SAGGSAGGSSVPEGWEVEREKVLEAEIVGEDGPVLRVRLYRVRVRPVDGPPRYFFELDVDDVDSAGGSAGGS [r12_544_TrMRF] | 2.38 ± 0.095 |
| SAGRIHVMVFPLDPKDGKWEWVWTFTIDFKPGEKLTLDEIADDIPPKGYMVMIWFTPDTITITIWRRKDSAG [r5_269_TrROS] | 3.87 ± 0.092 |
| SAGGSAGSYLVRVRIRRPEDGKELADAVFEVPPDEPVTAEAILKELGIPPEEAKNIEIEVEVFELGSAGGSA [r15_665_TrMRF] | 2.26 ± 0.049 |
| SAWIPAKEIAKYLAKELQEKMPHPGMKIPVDVETNPEENYVRVDIDIEHPGDGGKWKFEIYIPPGDTIVSAG [r14_849_TrROS] | 0.664 ± 0.038 |
| SAGGSAGGSAGMETTDSVITYPDGSVVTVTTLPDGTTRVTTFYPESGLTEEEIVPAAELGSAGGSAGGSAGG [r11_1015_JUSTAS] | 1.8 ± 0.086 |

experiment: folding stability dG unfold (combined trypsin and chymotrypsin); higher = more stable
Outline: as §1

| Sequence | folding stability dG unfold [kcal/mol] |
| --- | --- |
| SAGGNPRPIELYFPEGKIEKIQEKLREEDGYDVDIQMEQNPDGWFKINITFQDPQRVMDILEKFGITSAGGS [r16_172_TrROS] | 1.26 ± 0.089 |
| SAGGSAGGSFKVPGGYKVVSVEEDPENKTVEITFADGSKLTIDIEDPNVFKPVKVEAPEGFDVSAGGSAGGS [r12_149_TrMRF] | 1.89 ± 0.054 |
| SAGGLYKKDPDGQYVKPVPKVPPIPIEIKFPNGVEVKIEIYPYSNHITIEYTGPNPELANELIQEIIQSAGG [r13_701_TrROS] | 0.702 ± 0.19 |
| SAGGMKKTVTITITEELPTETGEYKTKTVTTTLTVTPPPPEVTEEEKLREKALKENPNVSPDDPKALLSAGG [r13_136_JUSTAS] | 0.153 ± 0.14 |
| SAGGREITIMIWMPLEDMEEFANEIANALAAEGYKVKDIEIQFKVIPDPENGRPWVMFMIEVEIEPPSAGGS [r8_475_TrROS] | 4.27 ± 0.1 |
| SAGGKTLTIEVNGKKYKITVEKNENGELTLTIYEYDKKTKKWKKIKTIKLKNMSLEEVLKLLKKLPPSAGGS [r16_378_TrROS_Hall] | 4.58 ± 0.3 |
| SAGGEGEPFRITPDEIQRIFNELAQDHGFNVSISEIQVPGDEVRITISIQHDGGTQSVRLPFRIEKDDSAGG [r13_652_TrROS] | 0.37 ± 0.21 |
| SLTPEQVEKIAKTIADVFRKLGYELKVKTKVFEVNNVPVAVVEFELIDKDGKPRRFRFVIHPDGTIEIFPSA [r9_1027_TrMRF] | > 6 |
| SAGGSAGGSAGGSPPGQEILIQIKIEFTFPIKKQTDGKPQWHPITISFTAAIPIKVDPNSAGGSAGGSAGGS [r4_271_TrROS] | 3.52 ± 0.14 |
| SAGGIKIMIPPGMPEEEARELARMIASMLPDNGHNIDDVKVRPVKPMPPPDGEPHRMYEFEIKLEPPSAGGS [r16_266_TrROS] | 0.738 ± 0.11 |
| SAGGSAGGSMKRLPDGNLVVKLNNGSTWSVITIPVSPDESEEEIKQRLKELFGPNYPEYDISESAGGSAGGS [r12_300_JUSTAS] | 1.04 ± 0.058 |
| SAGGSAGGSAKITITKEDIVSYDEENKTFTIKLKDGSTIKIRVEKVKDGKIKVYDEDTGKPISAGGSAGGSA [r18_418_TrROS_Hall] | 1.65 ± 0.18 |
| SAGGSAGGSADIGDPSKIKPKPLHFSFPVKIKLSFEYNGPDGVKKTFSLELTFTVVDKGLGSAGGSAGGSAG [r3_380_TrMRF] | 3.89 ± 0.44 |
| SAGGSAGGSAKYLVVGGKVIEIPSGGDAKIETTKDDRVKVTIDLPDDRKLEFTFPVPKWVGSAGGSAGGSAG [r3_207_TrMRF] | 0.408 ± 0.07 |
| SAGGSAPPTYTFMIPIKEIYVPDPDNGKPKPIPVEEFADFLMPKFGIDVEILDVHPDWIQITVTPDSAGGSA [r15_55_TrROS] | 1.73 ± 0.19 |
| SAGGMTPEELEAAARAAAAALRAELEAGDPDVEVDLEVDPEKGTATFTVTDRATGRPRTLTVPFAELASAGG [r13_354_JUSTAS] | 1.53 ± 0.073 |
| SMVIPPGSRAEFRLEDVPVRLEVEEGSGKVHFRVFSPENPDEEVFEAEFDINDLKPLDLPPELREAFEKESA [r9_1051_TrMRF] | 0.955 ± 0.18 |
| SMVVIEVEPNPETNSLTAKVYLPKDGKKVVEIERSPDGTVKVTVYYKDGSKEEFTFPEDIPIEEAIKKAISA [r9_346_TrMRF] | 1.15 ± 0.095 |
| SMTAEVTLTIVYPDGTSTTLPMTFPADDPEALRAAIRAAVAAAGYTPTALQMTFTAQPDGSVRVDVTVTVAS [r1_281_JUSTAS] | 5.61 ± 0.077 |
| SAGGMITEKVEKIDDGEIIKLTANLSDPSPVVAWLKATGKNVKLVEIKPTTDPETGNTTVNATFLLPSAGGS [r16_699_JUSTAS] | 0.0229 ± 0.22 |
| SAGGSAGGMVVRVTLPDGTVVTFEFESEEEFRKEFAASLGLAPDEIPEERIVSVERLSPEEYRSSAGGSAGG [r6_588_JUSTAS] | 1.59 ± 0.086 |

Reference: the supplement of paper PMC12764529
